# Measurements: the domain aggregation screens of Martell et al. (2025)
# Experiment: soluble fraction after stress (log2 fold change); higher = more stays soluble; pooled small domains, quantitative proteomics
# Details: stress: 75 degC
# 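Also: 20 min heating vs room temperature control held 20 min.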
row,Sequence,soluble fraction (log2)
1,HMRTFFEIEQLKAYVGEEIQVKFEADSHKQTVLGKLISISEDFIEIENSKKGNLKISLDNYLTSKLIY,-2.23
2,HMRTGSSVLVGLVAPVRLGATGAPKVFADGALWEARSAVPLNDGQLVEITGTDGLTVLVKPSA,-0.122
3,HMRTIVSELNDIKGISDASAKKLLIRYGSFEAVREAVMKHEEEFELDMGKRITGALTRYFYEE,-1.78
4,HMRTKLEEAVEWLQEQLNDGPVLSKELESEAKAADILPGTLRRAGEALGVVKQKQGGRGGWTWSLPR,-0.017
5,HMRTLGADLRALRKARGLTLAGMADNMGKSVGWMSQIERDISEPSISDLRALAKLLDVSVSSLFR,-2.54
6,HMRTQEELVAEVREQMEAMGTIATLYVELYESSEERLVGGVIFEDERHYRFVYEDGLLHYEEEK,-0.527
7,HMRTRSDVKRAAIIQAAKDAFQEYGVNATSMDKLAEMASVSKRTVYNHFSAKEELVMHIVKE,0.538
8,HMRTVPEALLGRAYETAETAIVLEGLEAKRTDVFHPTIGNGTVIRLEPASGSQVSAGGVIEIFVSKGTETI,-0.346
9,HMRVDYKTQLQELLQRQGAAAPQYRLLVEEGPAHLRRFQVGVYFQGRLLGTGWGRNKKEAEQEAARQALMP,-1.9
10,HMRVEEVGYGEFLQMAEERDLAEVQVTDTEIIFSDKDTPPNYYKTGRMDDPFLVDRLYSAGIRDFGE,-0.136
11,HMRVESVGDRIRRLRKSLGLTQVKLAQMLGIKAPSVVQWESDKTNLSGENLLNAAKLFGVTPDYILYGG,-0.197
12,HMRVLEYTADGSRLDVLLSQDGVLSRSRAAELIKGGAVTVDGRAEGKPSAKPAPGALVRVEVPE,0.0615
13,HMRVVGRNHYDDADLAHIRSVIQLEARPLNVSRIARTLANEYPKHTYWSYLSFLQKNLRDRPDLF,-1.96
14,HMRVVPEILERAVAVFEALGVDRLPSSTLADRLGYDSPEALADVLRPLGVRPKKYRDGKSTARGYLAADLG,-0.526
15,HMRYEESVTLGERLLNQSLVALKADNIDDALWERFLREEAGEKSRQEILSDIGLGKRLPVVVAKRLLAPS,-0.115
16,HMRYPLPYAFARSQQLLLEETDDGRYTLWMSSHPARSAVGEVSRKYGVQTFEVLADGPLAQRISAAYAQ,-0.983
17,HMRYTAAEMAKKLDISRSYLYYLKEAGVVEIEKNENGKPIWTESVYNQLFEYIKKNHRTEEADNTQ,-0.805
18,HMSAAIGEAVIATDEINVRSGPGLSHEIVSVVSRNESYPILEERGDWVQIQLNGGQKGWVVSWLIKKKS,-0.665
19,HMSAAMTESVLDGIPGLGATRKAALLAHFGSVRKLRAATSEQVREVPGIGPRLAETILATLHEP,-0.52
20,HMSAATGIINTDNVNIRSGPATTYDAVGRLNQGSSVEILSSRNDWYQIQANSLKGWVRNDLLNVQK,-0.00758
21,HMSADDLVSRTQAIVAELKDLEGPLLPILHSVQEAFGHVPDEVKPVIAEALNLSRAEVHGVVSFYHDFRAH,-0.126
22,HMSADIGAEKAKTIALNHAGVSASNAVFLHAKLDYDDGRRTYEVEFYSGSKEYDYEIDAATGEILSYDFD,-0.929
23,HMSAEAYLSFVKKENLRAAVVNYENNKEWLKDVPHERLLDLAVFAKVDMGEPGMSMKFNNWLLSR,-0.934
24,HMSAEKDGEWLTLTEAAKHLQVSPHVIRRLIQTGALPAEQVMRGAPHQIRAADLDTDRVKTMIAR,0.133
25,HMSAEKPVKSELFYKSMLNSFEQAVRFMIANGILEDFKSRIVAINNETNHQNWFNKQEFNAIIERF,-1.49
26,HMSAERFDFRIGPELAGKRFDQALAEALPQFSRSRLSTWIKDGRATLNGATMRPKDSVHAGDTVVVNAE,-0.186

row,Sequence,soluble fraction (log2)
1,HMSAEVEVPDVVGRQVALAVQLIETKKLRVNVAETYDAKVPPGQVISQSPEAGMKVKEERVITIYVSR,-1.36
2,HMSAGISVADVTNRTYDEGYNTLTAQHLLVNKVYEANETIPLDTIIRTDPVAGTKVPDNTSITVYVSSGK,0.382
3,HMSAGPQGRTPREDELTVGTKVYVSRVGASGVVSSDVSRGKVVVQVGALRLTAAVSELLLLDG,-1.21
4,HMSAGYTYQNYQQDLKSGNVQNIHIYLSEEMYSGNVKVIYKNNKSVTFTVTDVTIAEAEARQVGISPIIYE,-2.38
5,HMSAHDLQVVLRWIGTDEPMTDQRYRITTEDGRTFEGRTDDAGLTERVASTIPFGRYSIEALD,-0.278
6,HMSAIEIDAEKILNYLTDRGGKMPYGDTTAPEVIKDKFNISKAAFKRALGFLLRSNKIEQIDGWTYI,-0.433
7,HMSAIKSVTTQLDNTKLRTGPDVSYQYTQSYPANTKLTYINKSGTWYQVKDADGNTGYVASWVVTPSE,0.586
8,HMSALIGAHTLERIDSRDFEGVVMAWLPKRDGYDSLYKIYHIEDGDFEELDDREVQAAISLFIEGT,-0.381
9,HMSAPAMTLDSIRSLLNDRDPWVVTQTVEWLVGLGPQVKTILETLTLESSDAARQAQNALDRINVRNYP,-0.796
10,HMSAPNPGQMHSWTDTQGRTLQATFIKADATTVTLNWNGRIVPIPLANLNAASQKLARELASAS,-0.443
11,HMSAPRRGETTAASLNLRAGPATDADILAQLPERTPLRVLQEDGEWLRVETHGNEGFVHRQFVAIPGDEP,0.0338
12,HMSARRHAVKHLDANQLQTRVARMLSEFGLTAKVSKDPNSNALIIDGAPEAQRIAAQLITTIDKE,0.0709
13,HMSASSDATRQRVLRAAEQLFGAKGVENVSLREMTTLAGVNLAAVNYHFGSKDALAEAVFEALSER,0.253
14,HMSASSEALKTAVRKVLLNNRMTQDRMARDAGLSGSALSQWLHGKYQGDVPALEGRLAAWLADTQAS,0.0606
15,HMSASSTAPGSVTLRGAILTAWTAAGGERSKMGLPVGYEVRQADGTVTQTFEKGRISVSPTGTATI,0.0449
16,HMSAVNLNDDEKAVYKSIKSGIRSLDELSLRTGMKIYELMAITVSLEMKGLVTKSPDGTLDAT,-0.743
17,HMSDAKKRAFSKDEILYSLKNRPFTSFDIESLFDDESKKTFIGLLDKGEISEKKVAGTIFYYLR,-0.817
18,HMSDEEAISKLPGVGPAILEKLKEAGYNDIMTIAVDSPKNLAELAEIGEPTAAKIIAAAKKAAD,0.113
19,HMSDIDIDVENDRAALAIAGGKLNHLVGARGEVLDALQELTRLAVQTSLGERSRLMLDIDNFRSD,0.185
20,HMSDIHARIAAALAALTSPEKIHDLVVDDDGKVSFTFHLTREDPATLVRDARKAVQAVDGVRDVKVNVVDP,0.134
21,HMSDKEDIDKYLLTYGDLLFNRTNSSEWVGKTAIYRGEVSAIYAGYLIRIRSFLDAEYLNSVMNSKYA,0.1
22,HMSDKTSLTDDDKALINSMLPDYDKYPSVAKLQAVEIAKSSSKMATLLMLDERYNETVSEALE,0.152
23,HMSDLGEIEKIVDEVLAENITKVQEYKDGKKGLMGMFMGQIMKKSGGKADPKIANQLLTEKL,0.11
24,HMSDNHYLLEIFLADLKSDEKFIRELAIFQLHHHIESDKVRAELKAAAETESDPYLKGMIESLLSSTS,-1.53
25,HMSDNYYSILGIETDATTDMIKRAYRRLSLELHPDRTKDNPILTEKYKKVNEAYGVLNDNDRKHIYDLQNI,-0.109
26,HMSDPELAIPRVVGLSGNDAQAALVKAGFSAVTVVTVKNSEVTSEQVTHVVPAEGAKAKASTPVTVVVSSS,-0.205

row,Sequence,soluble fraction (log2)
1,HMSDRQLKRQANILYTTRKLASKVGYDGLTMRGLAEASEVSPKTLYNLFSSKDELLAAALEDLVGIV,0.0601
2,HMSDTFTITTESGRIDKIITAHETTHTRSQVQKWLQDGLVTVNGNPVKANFKVTAGDVVTVTIPEVK,0.0601
3,HMSDTMTVTNVKYAIYLRSTPSEASDANIIMEIPVGSKVTYLDTPNNTFYKISYGGTVGYSKQIYLTF,-3.69
4,HMSDVLPEAILERRLVKKGNRAVPQVLIKWTKLPATSATWEDFYVLQQRFPTALAWGQAPSPGGQM,-0.462
5,HMSDVTPDVVRALRKRLKLTQVQFGEIFGMTSKKVSAWEHGKAEPTEEQKQKIQSLLKENNEQ,-0.146
6,HMSEATTVNYKYAVTISDLRIRKGPGTNYGSVGYTGKGVFTIVAEKGGWGKLKSGAGWISLNSKYGHKVS,-2.03
7,HMSEEAMVSNFRQQEILELARKDGKVTVDGLAELYDVTVQTIRRDLSDLADSGRLKRVHGGAVVPS,0.162
8,HMSEFGENLKKLRTARDLTQQELGAKVGLSKAVVSKYENGLGYPTFDVLIRIAAYFGVTTDYLLGV,-2.81
9,HMSEFSDRFRLLKDESGATLKELSEQLDITVPNLSYYMKGREPSYDILIKIADYFGVTTDWLIGRTDER,-1.18
10,HMSEILQLINKIDKKLEKGYTFANISRNHYEKIYKEEILNLYKTSKLKGEAEDSIKEVLESLLGDLRKP,-0.833
11,HMSEISAEAGKRIRYFRKSRSMTLEELAAVIHKSKATLSKYETGEISIDLDTLYDLAVALQVRAEQLLPAS,-4.35
12,HMSEITMMQMEIPEGHNWENRLVKDVSMPTGSLAVMIKRHGETLIPGGDTRILAGDTIVLSVPAYESG,-0.112
13,HMSEIYVDDINRKILYLLSQGIKTKSLLEHIPLSMSGIEKRKKQLKMLFSVEDGKDETLLEMAKEKGF,-2
14,HMSEKAQSENEDLIKILALLIHAAKIDENYSEKEKKLIISFAEMSSNKKLDREQINSLVDKAEQYEK,-0.532
15,HMSEKLLTLNEISEKLRVSRHTVQAWVSPSSPNHRPEFSSLARHAGRKTVFLESDVDAWLAQRR,-1.07
16,HMSEKYPPIDWNNIKTGQSVLIKDINQVVSLTKLPDSKGFAEVQMGLIKTKIKAEKLAATDKKPNK,-0.326
17,HMSELDSYIGARLRMRRLMLGMSQEALGEKLSLTFQQIQKYEKGTNRVSASRLYELAQVLDVPVQFFFDGA,-2.98
18,HMSENDTILAKFASIINNKSLELVIFPDTAYLKGQVSTPEDKARAETVAQSLLGSKPLISLIEFE,-0.386
19,HMSENPLTSREIEIVQLLANGKTTKSIAEELHLSNGTIRNYVSIVLDKLNVSNRIEAIRKALDKGWL,-1.81
20,HMSEPQEISYSDFIEQVNRNEIRQVEFDGQHEYLTVIRKDTSRFKVIIPAPDPRLLDDLMEHDVEIVGKE,-0.123
21,HMSEQYEQIQLALKTLTQDEQDIVRLVVVEGASLRTAGKNLGVSAMTIQRRLKRALARLRDLLAS,-0.839
22,HMSESKYKMIKNWIKSKILDGTLVPNQKIYSESELMEIFDVSRHTVRLAIGELVSEGYLFKRQGTGTFVTQ,-2.82
23,HMSETTSRVLQLLGLLQARRVWTGQELADRLGVTGRSVRRDIERLRDLGYPVHASKGRDGGYQLGA,-1.61
24,HMSEYILATNDGEFLRITSYSKEEGGMLVWEKTSSIVSAEHKVIPYSQIINIKDRNGDVVWDKD,-0.988
25,HMSEYNPGIYRVTDPALNIRTGPGVEYPVVGVIKDQGSYTITEIRNKSWGRLLSGAGSTAIKHIVFT,0.214
